For eight substances, binding inhibition rate (%) results are on record in WO2023190851A1.

For this experiment, the target named is SARS-CoV-2 Spike RBD, His Tag (B.1.1.529/Omicron) (SARS-CoV-2, Omicron B.1.1.529 (BA.1) lineage) (UniProt P0DTC2).
On to ADG2 (antibody), for which the binding inhibition rate (%) at 2 μg/ml is < 30%.

For AZD1061 (antibody), the binding inhibition rate (%) at 2 μg/ml is < 30%.

Regarding AZD8895 (antibody), the binding inhibition rate (%) at 2 μg/ml is < 30%.

With LY_CoV16 (antibody), the binding inhibition rate (%) at 2 μg/ml is < 30%.

As for LY_CoV555 (antibody), the binding inhibition rate (%) at 2 μg/ml was < 30%.

REGN10933 (antibody): the binding inhibition rate (%) at 2 μg/ml was < 30%.

For the substance REGN10987 (antibody), the binding inhibition rate (%) at 2 μg/ml is < 30%.

As to S309 (antibody), the binding inhibition rate (%) at 2 μg/ml was < 30%.
